Measured values taken from publication PMC8125372, “Refining the Design of Diblock Elastin-Like Polypeptides for Self-Assembly into Nanoparticles” (Polymers, 2021).

Molecular target: the molecule itself
Test: dynamic light scattering; 10 µM ELP in PBS on a heating ramp (7-40 °C in the legend, 7-37 °C in the methods), scattering angle 90°; nanoparticles between the CMT and Tt,bulk (18.5 and 27 °C for ELP-[*M1V3-40]-[I-90]; 19 and 31 °C for ELP-[*M1V3-60]-[I-90])

B1: ELP-[*M1V3-40]-[I-90] (other)
chain: MWVPGVGVPGMGVPGVGVPGVGVPGVGVPGMGVPGVGVPGVGVPGVGVPGMGVPGVGVPGVGVPGVGVPGMGVPGVGVPGVGVPGVGVPGMGVPGVGVPGVGVPGVGVPGMGVPGVGVPGVGVPGVGVPGMGVPGVGVPGVGVPGVGVPGMGVPGVGVPGVGVPGVGVPGMGVPGVGVPGVGVPGVGVPGMGVPGVGVPGVGIGVPGIGVPGIGVPGIGVPGIGVPGIGVPGIGVPGIGVPGIGVPGIGVPGIGVPGIGVPGIGVPGIGVPGIGVPGIGVPGIGVPGIGVPGIGVPGIGVPGIGVPGIGVPGIGVPGIGVPGIGVPGIGVPGIGVPGIGVPGIGVPGIGVPGIGVPGIGVPGIGVPGIGVPGIGVPGIGVPGIGVPGIGVPGIGVPGIGVPGIGVPGIGVPGIGVPGIGVPGIGVPGIGVPGIGVPGIGVPGIGVPGIGVPGIGVPGIGVPGIGVPGIGVPGIGVPGIGVPGIGVPGIGVPGIGVPGIGVPGIGVPGIGVPGIGVPGIGVPGIGVPGIGVPGIGVPGIGVPGIGVPGIGVPGIGVPGIGVPGIGVPGIGVPGIGVPGIGVPGIGVPGIGVPGIGVPGIGVPGIGVPGIGVPGIGVPGIGVPGIGVPGIGVPGIGVPGIGVPGIGVPGIGVPGY
modifications: Thioether side chain of Met residues oxidized into sulfoxide M(O) with H2O2 (11 Met); two Met residues were found oxidized into sulfone M(O2)
notes: N-terminal leader of the elastin-like polypeptide; C-terminal residue; also called oxidized ELP-[M1V3-40]-[I-90]; source: E. coli BL21 Star (DE3), purified (inverse transition cycling with ammonium sulfate, desalting), then oxidised with H2O2
**Q.** Does B1 bind?
**A.** binds
